Experimental data published in IntAct's records for PubMed 19015526.

B1: Ribonucleoside-diphosphate reductase subunit M2 B (Homo sapiens), Q7LG56-1 (parent)
chain: MGDPERPEAAGLDQDERSSSDTNESEIKSNEEPLLRKSSRRFVIFPIQYPDIWKMYKQAQASFWTAEEVDLSKDLPHWNKLKADEKYFISHILAFFAASDGIVNENLVERFSQEVQVPEARCFYGFQILIENVHSEMYSLLIDTYIRDPKKREFLFNAIETMPYVKKKADWALRWIADRKSTFGERVVAFAAVEGVFFSGSFAAIFWLKKRGLMPGLTFSNELISRDEGLHCDFACLMFQYLVNKPSEERVREIIVDAVKIEQEFLTEALPVGLIGMNCILMKQYIEFVADRLLVELGFSKVFQAENPFDFMENISLEGKTNFFEKRVSEYQRFAVMAETTDNVFTLDADF

Variants of: B1
Conditions: with atm_human ATM

Row | Variant | effect of a mutation on the interaction
1 | S72A | decreasing interaction
